B1: YJL020C_1 (protein, UniProt P47068 1-1157, looked up)
Myosin tail …: MSEPEVPFKVVAQFPYKSDYEDDLNFEKDQEIIVTSVEDAEWYFGEYQDSNGDVIEGIFPKSFVAVQGSEVGKEAESSPNTGSTEQRTIQPEVEQKDLPEPISPETKKETLSGPVPVPAATVPVPAATVPVPAATAVSAQVQHDSSSGNGERKVPMDSPKLKARLSMFNQDITEQVPLPKSTHLDLENIPVKKTIVADAPKYYVPPGIPTNDTSNLERKKSLKENEKKIVPEPINRAQVESGRIETENDQLKKDLPQMSLKERIALLQEQQRLQAAREEELLRKKAKLEQEHERSAVNKNEPYTETEEAEENEKTEPKPEFTPETEHNEEPQMELLAHKEITKTSREADEGTNDIEKEQFLDEYTKENQKVEESQADEARGENVAEESEIGYGHEDREGDNDEEKEEEDSEENRRAALRERMAKLSGASRFGAPVGFNPFGMASGVGNKPSEEPKKKQHKEKEEEEPEQLQELPRAIPVMPFVDPSSNPFFRKSNLSEKNQPTETKTLDPHATTEHEQKQEHGTHAYHNLAAVDNAHPEYSDHDSDEDTDDHEFEDANDGLRKHSMVEQAFQIGNNESENVNSGEKIYPQEPPISHRTAEVSHDIENSSQNTTGNVLPVSSPQTRVARNGSINSLTKSISGENRRKSINEYHDTVSTNSSALTETAQDISMAAPAAPVLSKVSHPEDKVPPHPVPSAPSAPPVPSAPSVPSAPPVPPAPPALSAPSVPPVPPVPPVSSAPPALSAPSIPPVPPTPPAPPAPPAPLALPKHNEVEEHVKSSAPLPPVSEEYHPMPNTAPPLPRAPPVPPATFEFDSEPTATHSHTAPSPPPHQNVTASTPSMMSTQQRVPTSVLSGAEKESRTLPPHVPSLTNRPVDSFHESDTTPKVASIRRSTTHDVGEISNNVKIEFNAQERWWINKSAPPAISNLKLNFLMEIDDHFISKRLHQKWVVRDFYFLFENYSQLRFSLTFNSTSPEKTVTTLQERFPSPVETQSARILDEYAQRFNAKVVEKSHSLINSHIGAKNFVSQIVSEFKDEVIQPIGARTFGATILSYKPEEGIEQLMKSLQKIKPGDILVIRKAKFEAHKKIGKNEIINVGMDSAAPYSSVVTDYDFTKNKFRVIENHEGKIIQNSYKLSHMKSGKLKVFRIVARGYVGW
B2: YLR436C_1 (protein, UniProt Q06673 1-1274, looked up)
Protein ECM30: MGNTDSKSSSILLNHCIALVRPEDADASSPSRTSSPSPSLSVDADPLSLNLSIFKLDSGPDVEALFSDKPNVPLDTVFNDFYLDFISVDVQDFSINSSFKKILHIISSLNPPNFNNLIVFLSLYIILSANSLPASRTGLHSSRLINAIKTLSILIPIYFDRVKSSTQDHYDVFWATQHEIEGLPLQNIPLGERLLLAILKLAFQDNFTTAVTAHPSELWEIGILTNSNKYRSLLNMHHQWHLFANRLLLLRLLAALFSSDLYTSGGKQDINMFLVYWCTQMPKDKSIQFTSSLLNCTMRFILNNNKDFQSLKANFFSSDATASNWQTLYFQFVQSCLHVLNLSMSYKAQDNVITIFLTQLQREYDLKLILSSFIKIFKYPIDLAIEQESNIFNFTNNKHIDASRRRAVSTSSHDNSSSSHASLPSSSSAAYHTKPQTKPQLPEIHPLLIPMTILMTNLIDCNKCFQNYFADKFASRFIIFSIYYLKYYDYSSLSSSSSTTRSNSSTTSNGTSNDTSNERSIVELNENSVSQILLPLLNHLLLILTSKKLVLFKMLQTFNLNYYTNNLPNFYKLSNINGDINNLTFRDFTVIQLSNLILDNIKFNLQPNPIFYELIYNLLPINDEILTSSHKNDDSHDDLILLSAKKKSASPSAATSSHTSSSKLSYNAAMSLLYVLSKSSNKVYLTTYATPVFKTKDIPYMISPGFKMDLLALLLRSITIFFTLYFDDAENLLFAMVRHQSITHQINDSINSISKALDMNPNLNSHIMTLKQMGFNRKVQWKDFYQFEEITDLPQVNLYSSANQQHQNQQQGQNDNRGQNQNEDPGQENESPTPYLLFNPASLENETPGTVKHFSSTNHDKNYQVIAFIDFKSDSNLNLQHQLEYWPHRPQWPTPLTFTHKCKNPKYENFNEVWSGTVYLQILLRVIKQILSKVPEIPRIKSVQYFETLSKLSALRSDILTTIHPRLPLDVRRLTTFQPLSMHTNDKLLMWFHIATWANIFTQTSFKYEETFSHELRQFESLLDISIDECEGNTISKPTTDRLGYIRRSRGQSSVSLERTISAGSGVSTPTMALNRTKSNGSGNLMNYFFQNTAQNHFQHLRSSSSSSSITLEKTTSNSSSIRTRPNSHHVAPETNNNNSTNGNSNNSSNGGFSFFKWKWGGNNSNGGSDDTKASQRDPNVSTSIITDNLNSYMFEEEISPGVVNNIIENNIWVGTDIRLFKIANFRKESFSFLEMTSSFFKKFKFINSDNDNYNNNEFDDNTQLRYTSRGLYR
B3: YNL106C_1 (protein, UniProt P50942 1-1183, looked up)
Polyphosphatidylinositol …: MKILLSKQQTRKIAIVSETHGLVFRPINSKNSRRSTCAVELVPKAELNGNGFRRLSNHEIYGFIGLIEIEGLMFIATITGKSKVAQPIPNKTVNKIYAVDFFCLNNSKWDFMDIDSSGYPIVTNDGDFAISSPPSISTHSSRSSLRSSSSRSLNAQEQAPKHPCHELRKLLSNGSFYYSTDFDLTCTLQKRGFTEHSLSFDDFDREFMWNSFLMDEIITYRDRLDVTAKELLDQRGFLTTVIRGFAETIFSYINRLKVGLTIISRQSWKRAGTRFNARGIDDDGHVANFVETEMIMYSSQYCYAFTQIRGSLPIFWEQDTSLISPKIQITRSVEATQPTFDEHFIRLFKKYGPVHIINLLSTKSSEIQLSRRYKEQLKNSEKMKIGRDVFLTSFDFHRETSQDGFAAASRIIPKIRNTILDAGYFSYDVKEGRLISEQDGVFRTNCLDCLDRTNLIQQTISLAVFKLFLEDFRLVKPSSFIDDNEFVQKVNALWADNGDQISQIYTGTNALKSSYSRKGKMSFSGALSDATKSVSRMYINNFVDKGKQQNIDTLLGKLPHQQVVELYDPICEYVNERLLESEEKFTTHSNINLFVGTFNVNGNSRRADLSKWLFPIGDKFKPDVVVLGLQEVIELTAGSILNADYTKSSFWETMVTDCLNQYEEKYLLLRVEQMSSLLILFFARSDRAYNIKEVGGSTKKTGFGGITGNKGAVAIRFDYGATSFCFVNTHLSAGASNIDERRNDYNNIYRNITFPRSKTIPHHDSLFWLGDLNYRITLTNDEVRRELRAQKDGYIDRLLQYDQLTQEINEGVVFQGFKEPTLQFRPTYKYDYGTDNYDTSEKARTPSWTDRIIYKGENLHPLAYSDAPLKISDHKPVYAAYRANVKFVDEKEKLNLVEKLYAEYKNTHPEALTTGPDELSHARMEKQKESIPLDATVQSAGIKLIDLDDTSSCVSPLLSGPSPQPSVVGPGGLSNVSPDKSKLNVLPPPPPTSRHNKEPSSKLLSPTKEISIVSVSPRKGESNLPALERHSTPKPLPPVPALSLSKPVSLQKSSSELQHAKETIDNGKIVPRPCPPIRRKSSTAPDEISTSTKNSGVSTTEDPEPAKASTKPEKPPVVKKPHYLSVAANKLNTSQEHSIKVSPSNSKSEEELPCKKKSKPKVPAKNPELEKLSVHPLKPCDPN
B4: YMR192W_1 (protein, UniProt Q04322 1-720, looked up)
Probable GTPase-activating …: MNSNEDIHEERIEVPRTPHQTQPEKDSDRIALRDEISVPEGDEKAYSDEKVEMATTNASSNFGSNESAKDGESIGAFSNPHEALMQSKLREESQSKTILPSDDLSQQLETEESKVEEALKRITSPPLPPRADCIEESASALKSSLPPVLAGNKNDQAPLDRPQLPPRQVVNAETLHLKAPHGNATPSKSPTSAVGNSSSSTPPTLPPRRIEDPLDLAAQKHFLASTFKRNMLFYKSEDNSIKCDLDKNILNLKEDSKKINNNEIPEEVSSFWLKVIGDYQNILINDIETLHFQLSRGIPAAYRLVVWQLVSYAKSKSFDPIYETYLTEMAPFDVQEFENQLKMMDEVPSEYVKRISNVLKAYLLFDPECEFSTDIAYIINMILDVCEEEANAFGLLVRLMKVYGLRLLFLPSASEIDILCYKFDRLVEEFYPEIHNHMVEKGVRSSMFLPGFFTTLFQKKLPTEIQPRIGDMVFLEGIDSIMRILATLLSNSRDHLLKMGFDDMLELLKSGLLDAYIKQNDGTRGDTLLSNECMDKLLQDSMMKVAITPKTMKKYSSEYEEIHRLDNEKEVQYKSITEKNLHLQKHVRKLENDYTSLNREHVTIANELVKNRLNIESVLNENNGYKLQILDLKKKLDSEKKKQVLGVYVPNDLKKDLEETMKKNTQVMDENLKLQDRISELERLIEEIKTANKNGTLFEYSNSKNNPLGAGWSGFKKVFK
B5: YNL287W_2 (protein, UniProt P32074 1-935, looked up)
Coatomer subunit gamma: MSAHTYKKFENSTSGDLPDKMTIYQDCMNTFNESPVNSKRCRLLISRLLRLLAQGETFPQNEATALFFSISKLFQHQNDPLRQAVYLAIKELSGISEDVLMATSSIMKDVQNGSDLIKPDAIRSLTYVLDESTAFSAERLLKSAVVSRHPSISSAALCTSYHLLPISEVTIRRFTNETQEAVLDLKQFPNQHGNSEYYPNSTYISQYHALGLLYQLKKTDKMALLKLVRHFSENNSMKNQLAKVELVKIVNDLIYRDPQLFSQFRPLLSDWLSNKFESVQLETAKLITSFATRNSRLVAPELYAAAISALQSLLTVPRVSSRFAALRILNRISMVSPEKIVVCNPELESLINDSNRNISTYAITTLLKTGTSKNISSLISTITNFIHDVSDDFKIIIIDAVRTLSLNFPQEWKSILNFLIDVLKNSEGGFKFKNSIVEALIDIVSFVPQSKELALENLCDFIEDCEFNEILVRILHLLGKEGPSAPNPSLYVRHIYNRVVLENSIIRSAAVVALSKFALTKNDPTLYESIISLLKRIANDKDDEVRDRATIALEFIDSARNKDDVIAQNLIESKYFYDIPSLESKLSSYISSNTDSFATAFDVNQVRKFTEDEMKAINLKRKQEQIFNQKSETTLDTTPEAESVPEKRADANSFAGPNLDDHQEDLLATKYADELLSIEQIKPFGQLVNSSRAISLTEPEAEFVVRGVKHLFKDNVVLQFNITNTLTDIALDNVSVVCTPEISDEAELEELFTLQVDRLLPSEEAACYVAFKKLDEIVMEGFLNNLTFTTKEINPDTNEPFDGDEGFQDEYEIDSIFLNAGDYVKSSFTGNFSATFDELPCEEVAVFNIQEDLSIQEVVDKIILNSSCLPVESTQFAPSDSNSHTLKLFGKSALTGSKVALQIKMIKSSKGLALKVHGKGEDSLLCSDLVNGLMQ

System: PPIs identified as affected by the SH3 domain deletions
Experiment: Liquid DHFR-PCA low-throughput validation of PPIs affected by SH3 deletion (Fig. S1D-E)
Type: cell-based, Saccharomyces cerevisiae
Conditions: label = prey, liquid DHFR-PCA, prey _1 = lost, _2 = gained in screen
In short: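 Yeast diploids from DHFR-PCA mating grown 48 h in synthetic complete MSG medium pH 6.0 with NAT and HPH, normalized to 1 OD and diluted to 0.1 OD in liquid PCA selection medium. Growth followed by OD every 15 min for 72 h at 30 °C.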

Molecule	Ratio (Deletedscore / WTscore) (bait MYO3)	Ratio (Deletedscore / WTscore) (bait MYO5)	Ratio (Deletedscore / WTscore) (bait LSB3)	Ratio (Deletedscore / WTscore) (bait ABP1)
B1	0.4075	0.4895	–	–
B2	–	–	0.9725	–
B3	–	–	0.7587	–
B4	–	–	0.5637	–
B5	–	–	1.751	1.101

Source: paper PMC7954794, “Protein context shapes the specificity of SH3 domain-mediated interactions in vivo” (Nature Communications, 2021)
